Measurements reported in article doi:10.1101/2021.07.07.451367 (bioRxiv, 2021).

Molecular target: T1, mNG::aPKC (C. elegans (endogenous in zygotes), UniProt Q19266 1-597)
T1 sequence (looked up): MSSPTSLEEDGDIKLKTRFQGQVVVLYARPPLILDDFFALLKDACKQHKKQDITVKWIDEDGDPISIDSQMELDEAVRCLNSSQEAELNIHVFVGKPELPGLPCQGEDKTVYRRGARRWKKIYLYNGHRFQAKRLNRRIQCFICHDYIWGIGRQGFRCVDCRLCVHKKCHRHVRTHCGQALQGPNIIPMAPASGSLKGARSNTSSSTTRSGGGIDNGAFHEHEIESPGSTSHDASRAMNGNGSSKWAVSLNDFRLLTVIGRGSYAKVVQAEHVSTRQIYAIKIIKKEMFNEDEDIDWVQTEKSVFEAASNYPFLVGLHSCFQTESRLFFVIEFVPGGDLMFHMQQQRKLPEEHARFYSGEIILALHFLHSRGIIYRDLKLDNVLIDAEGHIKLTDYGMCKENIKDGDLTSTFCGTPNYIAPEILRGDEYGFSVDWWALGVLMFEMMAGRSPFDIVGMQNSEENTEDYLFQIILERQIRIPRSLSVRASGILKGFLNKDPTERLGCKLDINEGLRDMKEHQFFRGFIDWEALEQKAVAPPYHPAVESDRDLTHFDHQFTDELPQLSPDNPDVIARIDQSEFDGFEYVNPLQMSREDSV
Assay: single-cell single-molecule pull-down

koff: 0.002 s⁻¹
B1: PAR-6::HaloTag (natural protein, C. elegans (endogenous in zygotes), UniProt Q9NAN2 1-309, looked up)
chain: MSYNGSYHQNHHSTLQVKSKFDSEWRRFSIPMHSASGVSYDGFRSLVEKLHHLESVQFTLCYNSTGGDLLPITNDDNLRKSFESARPLLRLLIQRRGESWEEKYGYGTDSDKRWKGISSLMAQKPPKRSYSISNPEDFRQVSAIIDVDIVPEAHRRVRLCKHGQERPLGFYIRDGTSVRVTERGVVKVSGIFISRLVDGGLAESTGLLGVNDEVLEVNGIEVLGKTLDQVTDMMVANAHNLIITVKPANQRNTLSRGPSQQGTPNASEMSAATAAATGGIQRPMKMNGSSDGSYHPKQHDANDSDSGED
modifications: HaloTag labelled with HaloTag ligand dye JF646, JFX646 or JFX650
